First the molecules themselves.
B1: OR4K15 (parent)
chain: GUUAACGGUCAUAGGCCAUGGAAACUAGGAGCACCAUUUCGCUGCCAGUGAAGAAAUGAACAAAGAAAAUCUGGGCCAGGCAGGCAUCAAAAGAAAUAGUCUUGCGCUCAACCAGAAAGUCUGUAAUCAUUUUAAGGGUA

Variants of B1 are the subject of this series. Briefly: self-cleavage, relative activity (ratio to wild type); higher = more cleavage; in vitro, sequencing; the parent is a self-cleaving ribozyme.
Regarding A78G U130A, the self-cleavage came to 0.17.
The result for A78G U130G reads 0.
To A78G U130C belongs 0.3.
In the case of A82U U100C, the self-cleavage came out at 0.5.
On to A82G U122A, for which the self-cleavage is 0.11.
As for A82G G123A, the self-cleavage was found to be 0.75.
A78G A94G: the self-cleavage turned out to be 0.19.
To G75U A117G belongs 0.15; to A82G A129U, 0.22.
On to A78G U122A, for which the self-cleavage turned out to be 0.13.
Consider A78U U97C, for which the self-cleavage was found to be 0.36.
As for A78C A96G, the self-cleavage stood at 0.27.
To A82C G119A belongs 0.17; to A78G U131C, 0.07.
To C81U U132C belongs 0.5.
Consider A78G A116G, for which the self-cleavage is 0.15.
As for G79C U120A, the self-cleavage was 0.04.
To G84C A111G belongs 0.02; to A82U U122G, 0.28; to G79C A116G, 0.03.
The result for A82U A126C reads 0.05.
To A82U G123A belongs 0.19.
Consider C81U A94G, for which the self-cleavage was determined as 0.41.
To C77U U120C belongs 1.21; to A78U U100A, 0.07.
Take A82C C105U: the self-cleavage is 0.02.
To A78G A117G belongs 0.22; to G75A U87C, 0.14.
To A82U A117C belongs 0.04; to A82U A117G, 0.28.
To A82U A117U belongs 0.23.
Consider C77U A126U, for which the self-cleavage stood at 1.88.
On to A82U A125G, for which the self-cleavage turned out to be 0.03.
Take A82U A125C: the self-cleavage is 0.29.
To G80A A114U belongs 0.05; to C77U A117G, 2.83; to G75A A95G, 0.05.
The result for G80A A129U reads 0.02.
With A78U U102C, the self-cleavage is 1.21.
To A78G U120A belongs 0.22; to G83A A86U, 2.81; to G83A A86G, 2.15.
The result for G83A C109U reads 0.71; that for A78G U102C, 0.31.
In the case of C77U U132C, the self-cleavage was 1.95.
The result for A82U A98G reads 0.06; that for A82U G138A, 0.17.
To G79A A129G belongs 0.17.
G79A A129C: the self-cleavage stood at 0.05.
For G83U A110G, the self-cleavage came to 0.06.
The result for A82C A134G reads 0.17; that for G80A U102C, 0.42.
On to A78G U100C, for which the self-cleavage is 0.31.
On to A78G U100A, for which the self-cleavage was 0.04.
For the variant A82G A117C, the self-cleavage came out at 0.06.
On to G79U A129G, for which the self-cleavage turned out to be 0.04.
To A82U U133C belongs 0.07; to A78G A129U, 0.25.
The result for A82G U120C reads 0.11; that for A78C U133C, 0.24.
The result for A82U U127A reads 0.04; that for A78C U108A, 0.01; that for G75A G93A, 0.14.
As for A82G A86U, the self-cleavage is 0.88.
The result for A82G A96G reads 0.59; that for A82G A96U, 0.45.
In the case of C81A A82G, the self-cleavage worked out at 0.13.
In the case of A82G A98G, the self-cleavage is 0.27.
To A78G U103C belongs 0.11.
To G83U U122A belongs 0.15; to C77A A78G, 0.53; to G75A C77U, 0.11.
The result for G79U U132C reads 0.09.
For the variant A82G C128U, the self-cleavage was 0.33.
The result for A78C U102C reads 0.42; that for G80A A125U, 0.24.
To G83U U102C belongs 0.35; to A82G G138A, 0.49; to G83A U131C, 1.28.
Regarding A82G A116G, the self-cleavage turned out to be 0.26.
To A78C U103C belongs 0.14; to A82G A135G, 0.58; to G75A A135G, 0.04.
The result for A78C U130C reads 0.21; that for G75U U127C, 0.11; that for A78G G138A, 0.2.
Regarding G84C A114G, the self-cleavage was determined as 0.05.
The result for G83A G93U reads 2.03; that for C77U A82G, 1.26; that for A82C, 0.07.
To A82U belongs 0.14; to A82G, 0.4.
The result for C81U U131C reads 0.37.
As to A78G G137U, the self-cleavage turned out to be 0.25.
On to A78C C109U, for which the self-cleavage worked out at 0.19.
As to C77U A91G, the self-cleavage turned out to be 1.91.
As to A78U A135G, the self-cleavage worked out at 0.3.
The result for C77A U100C reads 0.61.
The result for A78G U139A reads 0.23; that for A78G U139C, 0.24.
For C81U U122C, the self-cleavage is 0.29.
For A82G U127A, the self-cleavage came out at 0.58.
With A82U U108C, the self-cleavage came to 0.01.
G80A U108C: the self-cleavage amounted to 0.01.
As for A82G U131C, the self-cleavage was determined as 0.45.
G84A A86G: the self-cleavage worked out at 1.73.
To A78G A90G belongs 0.24.
Turning to G84C A89G, the self-cleavage stood at 0.34.
G75C U130C: the self-cleavage turned out to be 0.08.
To G80A A82C belongs 0.14; to A78U U120A, 0.18; to G75A U122C, 0.08.
The result for G75A U122A reads 0.17; that for A82C A94G, 0.19.
To C77U U87C belongs 1.31; to A82G C121U, 0.91.
Take A78G U132C: the self-cleavage is 0.12.
To G84A A117G belongs 2.38.
G79A U139C: the self-cleavage stood at 0.11.
For C81A G104A, the self-cleavage stood at 0.67.
The result for G80U A86U reads 0.23.
To C76A A117G belongs 0.18; to A78U G84C, 0.11.
On to A78C U122C, for which the self-cleavage was 0.1.
G79C U97A: the self-cleavage came out at 0.05.
A78G A140U: the self-cleavage was 0.36.
As to A78G A140G, the self-cleavage stood at 0.32.
The result for G75C U122C reads 0.12.
As to G75U U133A, the self-cleavage worked out at 0.15.
As to A78U U133A, the self-cleavage was determined as 0.72.
To C81A A90G belongs 0.07; to C77A, 0.76; to C77U, 1.54.
The result for A78G U124C reads 0.14.
Consider G80A A96G, for which the self-cleavage was determined as 0.18.
As to G83A A118G, the self-cleavage was found to be 1.41.
To A78U A82U belongs 0.15; to A78U A82G, 0.08; to C76A A111U, 0.03.
The result for G75A G119A reads 0.17; that for A82C A90G, 0.15; that for A78G U97A, 0.27.
With A78G U97G, the self-cleavage amounted to 0.27.
The result for G79U A116U reads 0.03; that for C76A U131C, 0.08.
On to A82G A118C, for which the self-cleavage is 0.28.
With C77U G79U, the self-cleavage was determined as 0.13.
To A82G U108C belongs 0.02.
The result for A82G U108A reads 0.04; that for A78G A82U, 0.19; that for A82U A134G, 0.16.
The result for A78U U87C reads 0.31; that for A82U A111U, 0.04; that for C76G, 0.16.
For C76U, the self-cleavage amounted to 0.05.
The result for C76A reads 0.1; that for G84A U108C, 0.01; that for C77U C113U, 0.27.
On to A82C A135G, for which the self-cleavage worked out at 0.15.
In the case of A82C A98G, the self-cleavage was found to be 0.09.
The result for C81A U132C reads 0.29; that for G75A A125G, 0.03; that for A82C A114G, 0.05.
To A82C A114U belongs 0.02; to A82G U139C, 0.39; to C76A A90G, 0.14.
To A78G U127C belongs 0.22.

The record behind these values is the RNAGym collection of RNA variant scans (doi:10.7554/elife.90254).
